Test results as given in patent US11358997.

Target: mouse leptin receptor on Ba/F3-mLR cells (mouse) (UniProt P48356)
Assay: cell-based or functional assay

Sequence of UniProt P48356 (P48356 22-1162): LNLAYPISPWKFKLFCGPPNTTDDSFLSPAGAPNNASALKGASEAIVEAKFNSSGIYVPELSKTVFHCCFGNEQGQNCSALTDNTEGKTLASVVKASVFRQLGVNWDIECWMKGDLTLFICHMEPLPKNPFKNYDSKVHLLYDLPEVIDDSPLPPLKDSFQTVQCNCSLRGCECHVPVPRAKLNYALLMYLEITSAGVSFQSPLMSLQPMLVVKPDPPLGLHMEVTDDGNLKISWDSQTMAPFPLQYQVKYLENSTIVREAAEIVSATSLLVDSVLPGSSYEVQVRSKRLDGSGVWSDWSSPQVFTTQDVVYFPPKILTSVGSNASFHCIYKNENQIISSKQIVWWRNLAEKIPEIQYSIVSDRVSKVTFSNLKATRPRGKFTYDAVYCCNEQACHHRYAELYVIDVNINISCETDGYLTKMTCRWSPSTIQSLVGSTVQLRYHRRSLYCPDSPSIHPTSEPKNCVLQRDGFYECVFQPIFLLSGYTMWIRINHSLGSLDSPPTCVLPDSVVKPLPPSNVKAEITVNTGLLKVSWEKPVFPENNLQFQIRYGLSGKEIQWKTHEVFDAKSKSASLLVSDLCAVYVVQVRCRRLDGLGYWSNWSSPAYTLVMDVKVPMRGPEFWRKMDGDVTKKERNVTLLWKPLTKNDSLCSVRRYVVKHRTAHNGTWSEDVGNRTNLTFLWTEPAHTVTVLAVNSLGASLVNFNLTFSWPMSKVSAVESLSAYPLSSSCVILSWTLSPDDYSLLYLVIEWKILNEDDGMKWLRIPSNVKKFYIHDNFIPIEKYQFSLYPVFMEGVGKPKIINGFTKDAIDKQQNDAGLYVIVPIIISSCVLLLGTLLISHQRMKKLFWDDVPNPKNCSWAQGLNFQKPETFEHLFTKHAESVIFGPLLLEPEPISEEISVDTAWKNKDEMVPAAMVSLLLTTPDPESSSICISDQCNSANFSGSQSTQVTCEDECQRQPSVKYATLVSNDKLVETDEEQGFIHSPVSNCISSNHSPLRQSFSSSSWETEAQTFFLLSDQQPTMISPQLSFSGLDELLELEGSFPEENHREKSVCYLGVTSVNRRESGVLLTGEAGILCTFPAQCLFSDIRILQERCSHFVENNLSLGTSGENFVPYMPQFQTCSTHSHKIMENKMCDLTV

Substance | induction of proliferation of Ba/F3-mLR cells (XTT assay, 4 days) (times less potent)
scTNF WT-6xGGS-mLeptin L86N-FLAG (from UniProt P01375 77-233; P01375 80-233; P01375 80-233; P41160 22-167) | 10
scTNF WT-6xGGS-mLeptin L86S-FLAG (from UniProt P01375 77-233; P01375 80-233; P01375 80-233; P41160 22-167) | 3
